Data: patent US20230374151A1 (GlaxoSmithKline, published 2023)

Key:
[1] = molecular target: T1, TnMUC1 (aberrantly glycosylated MUC1) on tumour cells (human, UniProt P15941 24-1255, truncated Tn / sialyl-Tn O-glycans on Ser/Thr (aberrant glycosylation)); test: flow cytometry on TnMUC1-positive Jurkat cells, His-tagged scFv pre-complexed with anti-His-PE, n=1 representative
T1 construct: whole, on cells; also called Tn/STnMUC-1; TnMUC1-positive MDA-MB-468 cells

[2] = molecular target: T1, TnMUC1 (aberrantly glycosylated MUC1) …; test: flow cytometry on MDA-MB-468 cells, scFv pre-complexed with anti-His-PE; mean
Experimental: (§1) Cells were detached and cells were re-suspended in appropriate cell culture media or transferred to Falcon tube. A sample of each cell suspension was then diluted 1:5 with DPBS (to give a final volume of 0.5 mL) and the number of viable cells per mL (based on trypan blue exclusion) were determined for each cell suspension using the Vi-CELL XR Cell Viability Analyser (Default cell type setting used). Cell suspensions were then diluted in appropriate cell culture media and seeded into fresh cell culture flasks at a density of 6.25×10⁴ viable cells per cm². Cells were incubated in a humidified incubator at 37° C. with 5% CO₂ for 48 hours (or until required). On the day of assay, cells were detached from flasks, resuspended in appropriate cell culture media (if appropriate) and the number of viable cells per mL counted as described previously. Cell suspensions were then centrifuged at 500×g for 5 minutes before resuspending cell pellets in FACS Buffer at a density of 4×10⁶ viable cells per mL.
(§2) scFv proteins were diluted to 62.5 nM in DPBS and dispensed into row A of a 96-well V-bottom plate before performing a 1:4 serial dilution in FACS Buffer down the plate to give 25 μL (final volume) per well (FACS Buffer in row H only). […]

[3] = molecular target: T1, TnMUC1 (aberrantly glycosylated MUC1) …; test: flow cytometry on MDA-MB-468 cells, scFv pre-complexed with anti-His-PE; experiment 75-13
Experimental: as §1, §2

[4] = molecular target: T1, TnMUC1 (aberrantly glycosylated MUC1) …; test: flow cytometry on MDA-MB-468 cells, scFv pre-complexed with anti-His-PE; experiment 75-14
Experimental: as §1, §2

T1 sequence (P15941 24-1255): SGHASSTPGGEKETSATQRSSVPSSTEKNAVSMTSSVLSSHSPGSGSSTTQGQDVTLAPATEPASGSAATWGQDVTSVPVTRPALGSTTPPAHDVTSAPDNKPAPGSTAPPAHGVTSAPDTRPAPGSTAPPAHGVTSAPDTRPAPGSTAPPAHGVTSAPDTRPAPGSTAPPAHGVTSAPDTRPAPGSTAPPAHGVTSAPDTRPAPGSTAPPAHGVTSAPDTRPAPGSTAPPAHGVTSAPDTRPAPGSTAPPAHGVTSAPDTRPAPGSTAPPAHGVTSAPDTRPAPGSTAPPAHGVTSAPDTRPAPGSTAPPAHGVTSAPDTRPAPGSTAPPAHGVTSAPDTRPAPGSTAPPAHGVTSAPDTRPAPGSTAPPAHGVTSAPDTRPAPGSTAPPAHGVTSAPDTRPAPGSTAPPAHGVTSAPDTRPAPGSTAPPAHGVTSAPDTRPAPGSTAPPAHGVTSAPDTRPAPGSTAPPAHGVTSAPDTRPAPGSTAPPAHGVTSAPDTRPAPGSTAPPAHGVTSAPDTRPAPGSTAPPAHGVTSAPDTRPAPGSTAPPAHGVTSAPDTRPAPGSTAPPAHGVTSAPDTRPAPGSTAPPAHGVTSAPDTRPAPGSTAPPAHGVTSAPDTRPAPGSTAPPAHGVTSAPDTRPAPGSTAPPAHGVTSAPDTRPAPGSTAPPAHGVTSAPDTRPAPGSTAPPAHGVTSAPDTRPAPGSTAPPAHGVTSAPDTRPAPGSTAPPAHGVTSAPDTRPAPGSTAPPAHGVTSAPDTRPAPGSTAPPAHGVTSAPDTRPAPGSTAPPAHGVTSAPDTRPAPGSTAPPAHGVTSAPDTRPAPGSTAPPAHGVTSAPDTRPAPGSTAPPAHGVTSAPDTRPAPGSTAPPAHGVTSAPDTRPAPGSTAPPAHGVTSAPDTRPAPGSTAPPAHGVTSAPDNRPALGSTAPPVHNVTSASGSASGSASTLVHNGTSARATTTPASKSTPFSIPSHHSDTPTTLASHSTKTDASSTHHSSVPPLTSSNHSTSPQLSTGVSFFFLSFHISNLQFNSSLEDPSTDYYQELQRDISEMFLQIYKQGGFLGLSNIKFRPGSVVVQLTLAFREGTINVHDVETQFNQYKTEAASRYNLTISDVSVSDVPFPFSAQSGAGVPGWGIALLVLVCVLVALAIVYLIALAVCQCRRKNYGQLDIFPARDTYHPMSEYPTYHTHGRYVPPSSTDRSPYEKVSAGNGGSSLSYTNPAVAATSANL

B1: humanised anti-TnMUC1 scFv protein 9P1 (88A), VL-VH humanised control (scFv)
scFv: DIVMTQSPDSLAVSLGERATINCKSSQSLLNSGDQKNYLTWYQQKPGQPPKLLIYWASTRESGVPDRFSGSGSGTDFTLTISSLQAEDVAVYYCQNDYSYPLTFGQGTKVEIKGGGGSGGGGSGGGGSGGGGSQVQLVQSGAEVKKTGSSVKVSCKASGYTFTDHAIHWVRQAPGQALEWMGHFSPGNTDIKYNDKFKGRVTLTVDRSMSTAYMELSSLRSEDTAMYYCKTSTFFFDYWGQGTMVTVSSAAAHHHHHH
notes: Control scFv designed from a humanised antibody of WO2015/159076 (10D2 is said to come from Ab2, so 10D1 by implication from Ab1); Neat supernatant of construct 10D1 in the Octet assay; purified protein 9P1 in Biacore and flow cytometry; also called 10D1
- EC50 (read off the curve) [1]: ~6 nM
- EC50 [2]: 3.09 nM
- pEC50 [2]: 8.51
- EC50 [3]: 3 nM
- pEC50 [3]: 8.52
- EC50 [4]: 3.18 nM
- pEC50 [4]: 8.5
